One substance from patent US12662530 can be followed below.

For experiment [1], the target named is human recombinant adrenomedullin receptor (CRLR+RAMP3) (human).
For experiment [2] the target is unchanged. The source holds these as a separate data set.

Regarding “human ADM 22-52 (from UniProt P35318) (peptide)”, the IC50 (read off the curve), inhibition of cAMP stimulation by 5.63 nM hADM in experiment [1] came out at 200 nM. For the same substance, the IC50 (read off the curve), inhibition of cAMP stimulation by 0.67 nM mADM in experiment [2] was 2000 nM.
